For one test, the target named is VRC34.01_combo1 Fab. The test can be described thus: BLI. The conditions noted are these: n = 3 independent experiments; parent: est. 1.0; read off a plot.
The target of test [1] is fusion peptide V1 (ITC peptide) (HIV-1). The experiment in a line: ITC. A general note: Isothermal titration calorimetry measures the heat released or taken up as one component is titrated into another.
The target of test [2] is fusion peptide V1 (ITC peptide). The experiment in a line: ITC. Conditions: parent: est. 33; read off a plot.
For test [3], the target named is BG505 SOSIP trimer with FP v3 (AIGLGAMF). The experiment in a line: yeast display FACS sort with NGS. Conditions: Round 3 high-affinity sort, read off a plot.
Test [4] addresses BG505 SOSIP trimer with FP Thai (AVGIGAMI). The test can be described thus: yeast display FACS sort with NGS. Conditions: Round 3 high-affinity sort, read off a plot.
Test [5] has as its target BG505 SOSIP trimer with FP v1 ([…]). The test can be described thus: yeast display FACS sort with NGS. Conditions: Round 3 high-affinity sort, VH-SSM library; parent: est. 1.8; read off a plot.
The target in test [6] is fusion peptide FP_v1 (V1: […]) (HIV-1). The experiment in a line: ITC.
[7] abbreviates: VH-SSM library, parent: est. 1.4.
[8] abbreviates: VL-SSM library, parent: est. 0.4.

In the case of “His-tagged fusion peptide (residue 512-521), wild type (BLI peptide) A512G”, in the test with VRC34.01_combo1 Fab, the ratio to parent worked out at 0.88. Same read-out and setting: to “His-tagged fusion peptide (residue 512-521), wild type (BLI peptide) A517G” belongs 0.97. As to “His-tagged fusion peptide (residue 512-521), wild type (BLI peptide) F519G”, the ratio to parent in the test with VRC34.01_combo1 Fab is 0.82.

As for “His-tagged fusion peptide (residue 512-521), wild type (BLI peptide) G514A”, in the test with VRC34.01_combo1 Fab, the ratio to parent stood at 0.97. Turning to “His-tagged fusion peptide (residue 512-521), wild type (BLI peptide) G516A”, in the test with VRC34.01_combo1 Fab, the ratio to parent amounted to 0.14. For “His-tagged fusion peptide (residue 512-521), wild type (BLI peptide) I515A”, the ratio to parent with VRC34.01_combo1 Fab is 0.12. On to “His-tagged fusion peptide (residue 512-521), wild type (BLI peptide) I515G”, for which, in the test with VRC34.01_combo1 Fab, the ratio to parent was found to be 0.01. On the same count and under the same terms, next, “His-tagged fusion peptide (residue 512-521), wild type (BLI peptide) V513A”: 0.47; “His-tagged fusion peptide (residue 512-521), wild type (BLI peptide) V513G”: 0.01; “His-tagged fusion peptide (residue 512-521), wild type (BLI peptide) V518A”: 0.97.

For the substance “His-tagged fusion peptide (residue 512-521), wild type (BLI peptide) V518G”, the ratio to parent in the test with VRC34.01_combo1 Fab is 0.83. In the case of VRC34.01 (template antibody), IgG, in test [1], the dissociation constant Kd (usually the concentration at which binding is half-saturated) is 33 nM.

Regarding VRC34.01 (template antibody), IgG H:E2K, the dissociation constant (Kd) in test [2] came to 27 nM. The same measure, in the same setting: to “VRC34.01 (template antibody), IgG H:E2K; H:A33P; H:T59F” belongs 2.2 nM; to “VRC34.01 (template antibody), IgG H:T59F”, 7.5 nM. In the case of VRC34.01 Fab H:A33P, the enrichment in test [3] (setting [7]) was determined as 55. Turning to VRC34.01 Fab H:K12A, the enrichment in test [4] (VH-SSM library, parent: est. 0.7) turned out to be 450.

As for VRC34.01 Fab H:T58Q, the enrichment in test [5] stood at 400. For the substance VRC34.01 Fab H:T59F, in test [3] (setting [7]), the enrichment turned out to be 480. VRC34.01 Fab H:T59Y: the enrichment in test [3] (setting [7]) stood at 2500. Regarding VRC34.01 Fab L:D1Y, the enrichment in test [4] (setting [8]) is 580.

Regarding VRC34.01 Fab L:S92T, the enrichment in test [4] (setting [8]) came to 440; in test [3] (VL-SSM library, parent: est. 1.7), 110.

In test [1], VRC34.01 VH_T59F, IgG (antibody) gave a fold higher affinity than VRC34.01 of 4 fold. Regarding VRC34.01-HC-E2K (antibody), the Kd in test [6] was 28 nM. In the case of VRC34.01-HC-T59F (antibody), in test [6], the Kd was 7.7 nM and the stoichiometry N – broadly, a count of units in the complex or per binding partner – amounted to 0.8. In test [1], “VRC34.01_combo1 (VH_E2K_T59F), IgG (antibody)” displayed a fold better binding than VRC34.01 of 6 fold.
